Experimental data from the supplement of paper PMC11502859.
“And” between values parts separate entries of the source, which are not always exact repeats. Equal entries are not always repeated.

Test system: HEK293T
Assay: median enrichment of reporter reads in eGFP-reduced (low/intermediate) vs eGFP-high sorted cells (eGFP-extension fusion abundance) (ratio); higher = stronger loss of eGFP-fusion protein abundance (more destabilising extension)
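Note: lentiviral eGFP-IRES-mCherry reporter pool sorted by FACS 96 h post-transduction, gated on mCherry-high cells, Illumina read counts normalized per million, median across four biological replicates.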

Substance | median enrichment
EPKEVPGTVSDLERSQKENNIIK [CELA2A] | 0
EPSPPLLCVGTGGPWPVPGHSGQGPRDISTRSWRAVRIHSACPALAGQRQGRTFGKTKTVGDRVCVYLCVSVSVCERELVSLK [TCF15] | 6.39
EPVKNHAKAKTRSAERAHGSSRLVGDQAHLICTNCSTC [OCSTAMP] | 3.35
EPWPWAPPQGRASRNGDSPGTACPQRGGGHSWAPESLRVLPTEPLGWEGAGGLARTPTFASSSSCPAGRAPPCMMGKAILPLP [SCN1B] | 2.5
EQPGTAFSFPAEYC [RBM34] | 0.275
ERAPTGRWGRRG [Degron KLHDC3] | 5.05
ERSPNLQVQGRYIHI [MARK1] | 1.47
ESFHMIFCHIKHIVCLTVYRILKCSGCKTRDYLYAQNSYIFINEFNILFILVRAGQPFWVTQLIYQLIQIIEYIHNQADTS [PLS1] | 11.2
ESHMRRTACSDQRAQRPEDKSGGDSMGMGVGCLRERTHGLGRGERCMGITFARAAYLKVTVSSGTAGDRYLLLQEINYPENST [LEXM] | 5.93
ESPLFLPTLQGPHSPYPSVQCTREETLCL [IDH3B] | 13.1
ESSTLLLQWVQKLLRPVVK [MYLK3] | 7
ESVAFLLFPH [NKAIN2] | 6.56
ESYNHMQLWDRSLVLGTIHTHTPSLCLWLTSQKTLVNDHSRILTRIHVTDLTQ [CPAMD8] | 15.9
ETGPTHHSPSPSISTWCLVPVHSVNKKP [KLK11] | 2.42
ETLNILSLIFN [POLK] | 8.07
ETSGFSSQTF [ELP5] | 0.462
ETSSGQNRRVPNYVLKP [SLC10A2] | 0.355
EVDV [PRKCB] | 0.313
EVGQPLMSWFLQLSFPLGCIEGFS [RAG1] | 6.39
EVGVRSPYSACCPGCAAQLDSASQHLPPRSFLLFIPIFTPKTSLSLFTPPKPLSHAGPLKPQLPTILREHPLPSLPFPALKPA [GSTM2] | 5.73
EVHTVCHRMAHVIAHFCVDMVLV [ATP5IF1] | 11
EVKGSIQVLHLVLPCLLSDHSDGLMWLLMWNCRRVQRRVCNKAIGKHTGAFPSPSGPRPLSKLDNFLLSCLFPALKLKQEIFW [HS3ST3B1] | 9.3

Substance | median enrichment
EVNV [CLEC2B] | 0.328
EVQPACSCIQKPATTQPISACAYPDKKTKIPLGKTQALTLLFKWPLQKV [TPD52L1] | 13
EYKLS [UBA6] | 0.363
EYPRFKKRT [PPP2R1B] | 1.16
FANCD2 | 5.79 and 4.35
FFF [Phe03] | 5.17
FFFF [Phe04] | 9.4
FFFFF [Phe05] | 7.46
FFFFFF [Phe06] | 9.02
FFFFFFF [Phe07] | 7.66
FFFFFFFF [Phe08] | 9.45
FFFFFFFFF [Phe09] | 9.48
FFFFFFFFFF [Phe10] | 7.03
FGHSRTGERQLYFSLGQLQRVGQALMGSDCQSDAVGPRQRKAGRRGARTFSPHCPFPFSGEHRRLLTPTSCEAVAYGVQRSWS [C16orf58] | 4.42
FILERNSTNVKNVTKLLSISLTLLHIRKFILEKNPTDVKNVAKPLSTPLNLLHIRDFILERNPTDVNNVVKLFTYPHTLLHIR [ZNF626] | 8.24
FLELKHPRMPLHVFHSPHLQTSLLFLTRPESKLPSLGNSGEGVSCTTYHTPSHPVSDFGMDSGKLGPSLNRVMYLNVCYFQPP [HSPA1L] | 6.57
FLGTHSHAHCRSINSNPHFRPKIMRPHLVSTFPRPCSKPNPFLPSGSQNLLSPTATTVLPDFSHSNHSRPAMGNRPSPSVLVK [RNF39] | 4.59
FLQRTALIFRFKRLPTR [Degron UPS] | 6.83
FPPPPSSGSPRSNVPPATFPLWPPAELICLSHRSWCLPLHRSLNAATLAGSRWKLVEGPCQVTAMLSLSRHGPGSFRHIQILH [S100A7A] | 8.52
GAAPQAGVEPDLGTKD [ZNF688] | 0.378
GACFAVGHPAKQANMETTCNLARLYLV [DDX3X] | 17.6
GAFFLEEESENFQTTAADSALMGCWLIGVLSMGDWNFFFV [ZNHIT6] | 8.19

Substance | median enrichment
GAHPKYACHLRPQAGHTGQPACRQDLPASSSQYSLQRLKCEAPAPPSALQPTGPGRTCPLSVSPSRVPRWRPLSTG [PAK6] | 3.28
GAMLPSSSSPPSTGWDRRQVPAHACLRLFPPLGQALGWKLGS [ADCYAP1R1] | 9.03
GANASRAAVNLCKD [BDKRB2] | 0.298
GAPPPGWTGAWLPSSFLPWLPEETPLTQPAWALTTNTLGHGQPAQDRLPALGHCAPISVLGLGSS [TTYH1] | 15.2
GCGLNCRLTK [MYO16] | 0.777
GCM [BET1] | 0.417
GCVLSQIYLLD [HYPK] | 11.9
GEKSYKCKECGKPLDDPQTLMNMRKFIL [ZNF141] | 6.09
GEVLPGPRRGDREHHCHPGEPGAGAPGACRLRQGRCGRDDAALGCGVGSPKHPRQQPRPWPHQWHRGAPATGWPSGQPEHQGH [DECR2] | 0.598
GFHSRGCCKQRDCHLELGWQGRAASFDSESSCPSPKPPPTP [SYT6] | 0.961
GGAAAAWSLRPSRPPSAAPSAAVCVAWASFQLTHGLKNRCFI [TMEM18] | 5.44
GGAVAANTPASGLLVAAPGDTPAKPTRWRGPPWSLATLPASAQGPLPSPGHLLCRRHSSQKPLSQKRLVFKKSRFFAPEVSFR [AP1M1] | 5.45
GGCRRRPSWCRQAGHRDPGPAQETAFFSRYNRRQKKRVPPLPNRSFWQGVPNAKTQRCGWHLLPHSFKIVKKC [FOXF1] | 9.48
GGEERRADLGRALRTWPRARDSPGSSSPWQAQQHVPQIWKGLPLCQCLGGCHGCPHPLLSVCGVEEPTPASCQDHLGGHTPAK [GPRC5C] | 0.687
GGFFC [GBP7] | 0.518
GGG [Gly03] | 1.62
GGGG [Gly04] | 5.17
GGGGG [Gly05] | 1.79
GGGGGG [Gly06] | 2.43
GGGGGGG [Gly07] | 2.97
GGGGGGGG [Gly08] | 1.64
GGGGGGGGG [Gly09] | 3.85

Substance | median enrichment
GGGGGGGGGG [Gly10] | 11.7
GGGGQVTRSGLSFWGCRSTEPLTPVCPRSPNRCGSSSERLSVQAMGQDRKVPELGKPGCNFLLHPAPPEVLRRVFLGIVFCSC [JUP] | 5.66
GGGSRSDQLIAHMLCLDME [HNRNPAB] | 3.08
GGGTGLTF [CARS] | 0.299
GGLLALTLQPTLAVWPSPGSFPAPLPLFPVLLNSPSWRVQALGMGGTRPHSFHRALRPDTADQPHSAQEAASGVGAQRGTAAS [BAP1] | 5.39
GGLLPLGPLTLSGWWTTKYNPVYNLKIYFTFVLLYLFIKG [SMAD4] | 5.18
GGLLSVLGTPGPYRTRAAALSHPLGRRYGSSVPLASMWSGGDAAPVVGTSWGDPRPSLAGLSPVPISHSGPRADILIK [GUK1] | 2.98
GGPMGMSMAQPSYTPPQMTPHPTQLRHGPPMHSYLPSHPHHPAMMMHGGPPTHPGMTMSAQSPTMLNSVDPNVGGQVMDIHAQ [MEIS2] | 2.36
GGPSV [NDUFV3] | 0.139
GGQCLPAPPLASSSAPRVPSVDPIRPAMASYSKMV [ACO2] | 0.291
GGQVAEGSGCRLLYPLCLKHPPHRALVFTRFVLDSLNGNRIPWLRAKTTTYQCPCPFQLTLSSLRSSLSLWKGHPSQGRNAWS [SLC13A5] | 8.48
GGR [RGS21] | 0.868
GGRACTGATQPGLGAASPQPPRAKNLFIKECFGTL [LMNA] | 17.9
GGRVGHPKR [ZNF786] | 0.607
GGTPEKMPGLIVPPQDMDSMWGQEGYLLPGKAISSSPVWGGMRPAPLVNTPFPRSSLPVLGGS [CIC] | 6.48
GHACLPNTIWSWTTFDTNQSYWTRPLEDLKYTSHAVVYLGCDSLSNAALGKDESDLQGEKCNHTWAPVNYGTEGPNCSPKGAA [APOBEC2] | 3.91
GHAQAMNPQLSQMADRWSPAPIATCNSEKISLVTDQCHGGAC [SHISA3] | 1.98
GHPQDTPMWLLDNPRAAKSCFSSLAPQVLQDRALKATPNEFSGFRLWLQPNRTHFEHPDCIFAFRKLE [C5orf46] | 3.29
GHPTPVPWRGSGPTLHNCLSRTVQTKGPAWKE [SLC37A1] | 2.83
GHSPLLVPH [TP53] | 0.449
GIIIISTCPQFLSQSPSILTCTHSDAD [TCHHL1] | 3.49
GISVSSLISGIFVDKIRRNSCNF [KATNAL1] | 2.39

Substance | median enrichment
GKSPVSQHRGAALHTCGETFPAGPRESDSKNNRCCFSRVM [HABP4] | 8.99
GLKFCKVLRGPEHVSATRGSGQHCVLRLVSYLRLPSICVQRPRLQPSQHSAGSHAPCPHPGQQTPARVCAPSDCTPALITHRH [SLC29A4] | 5.42
GLLPVDEVSFL [ABCC5] | 0.739
GLPPWSLNPAPTSCLFS [PRDM10] | 5.78
GLPS [TMEM107] | 0.716
GMSFLDLH [LSM5] | 0.489
GMSVVSCLQTPSPAQFI [SAMHD1] | 1.45
GNHGARAARCVQRRAHRHHPHPDQPAYRGARAPLPEAAQGHQR [UCKL1] | 0.821
GNWD [PIK3C3] | 0.441
GPPSTSQQQD [DENND5A] | 0.577
GPWDTAFSFARLSACRPGGEPGPANESLVYLGCNSLKVQSFGLQSCPGPGSPGHCCSPRPWALVFLQHHTCCPFSISVCVKGD [MYO1F] | 5.6
GQRQRVLPKPLLPLWMLSLTLTHHCASLQTPRAQDWARPRDSHPFPSWEELACLATDSVSSNWLKWALPRVQLCGFYHA [IQGAP3] | 15.7
GRCSDASAGAGTPNPWLQNRDPHPDRGSSAFEGFQAGLCGTEAQRGPGTWQRWGREEIQLPSLLPLLLQVPSNQELYILLVPQ [CCDC86] | 5.26
GRGMASGREGGIVGGQGSGFGSRWEQGLVKLFVSGPQ [PAQR7] | 12.5
GRNQQSTSAGQQPREPLPTRIAGSVTEQAG [ETV6] | 4.01
GRRADSLAAPVLSPAILPYQGHWPLPSLCEGYFL [CYP2C18] | 17
GRRWCFRTLSHSLPSSALCHSQPFQQPRQPLLRPFPQPDTHSH [AMOTL2] | 12.3
GRTRRFNRASVVSPVGLQKSGAFAICLK | 10.9
